Assay results published in paper PMC7992120 (2018).

Target: linearized DAKD (N-methyl F6) (Homo sapiens, backbone amide N-methylation at F6 of peptide)
Assay: radioligand competition binding

B1: B1 bradykinin receptor (B1R) (protein)
chain: MASSWPPLELQSSNQSQLFPQNATACDNAPEAWDLLHRVLPTFIISICFFGLLGNLFVLLVFLLPRRQLNVAEIYLANLAASDLVFVLGLPFWAENIWNQFNWPFGALLCRVINGVIKANLFISIFLVVAISQDRYRVLVHPMASRRQQRRRQARVTCVLIWVVGGLLSIPTFLLRSIQAVPDLNITACILLLPHEAWHFARIVELNILGFLLPLAAIVFFNYHILASLRTREEVSRTRCGGRKDSKTTALILTLVVAFLVCWAPYHFFAFLEFLFQVQAVRGCFWEDFIDLGLQLANFFAFTNSSLNPVIYVFVGRLFRTKVWELYKQCTPKSLAPISSSHRKEIFQLFWRN
Ki: 2.03 µM
